Measured values taken from patent publication US20210147486A1 (VIB VZW, published 2021).
Where no end group is shown, it is not given here. The star is where a group is joined. NH(CH2)5NH2 = NCCCCCN*

Assays:
[1] = molecular target: T1, CsgG Y51A/F56A/N91R/K94Q/R97W-del(V105-I107) pore containing the C terminal strep tag (Escherichia coli, UniProt P0AEA2 16-277); experiment: panel D; complex made by incubating pore and peptide; DNA translocation current recording
T1 construct: not shown: C-terminal Strep tag
T1 chain: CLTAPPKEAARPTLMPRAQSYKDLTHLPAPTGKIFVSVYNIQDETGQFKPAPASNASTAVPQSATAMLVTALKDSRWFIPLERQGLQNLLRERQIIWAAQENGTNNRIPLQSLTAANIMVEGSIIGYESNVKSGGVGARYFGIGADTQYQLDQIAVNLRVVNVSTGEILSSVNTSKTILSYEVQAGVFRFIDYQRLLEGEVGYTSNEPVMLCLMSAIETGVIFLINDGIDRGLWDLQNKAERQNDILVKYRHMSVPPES

[2] = molecular target: T2, CsgG Y51T/N55V/F56Q/N91R/K94Q/R97W-del(V105-I107) pore containing the C terminal strep tag (Escherichia coli, UniProt P0AEA2 16-277); experiment: panel B; complex made by incubating pore and peptide; DNA translocation current recording
T2 construct: not shown: C-terminal Strep tag
T2 chain: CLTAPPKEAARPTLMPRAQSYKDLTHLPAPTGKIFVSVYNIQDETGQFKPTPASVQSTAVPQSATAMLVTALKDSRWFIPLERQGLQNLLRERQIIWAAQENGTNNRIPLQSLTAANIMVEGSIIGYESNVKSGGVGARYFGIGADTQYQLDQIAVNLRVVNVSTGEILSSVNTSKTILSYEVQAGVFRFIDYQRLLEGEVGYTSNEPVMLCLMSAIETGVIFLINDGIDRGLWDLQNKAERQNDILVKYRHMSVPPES

[3] = molecular target: T3, CsgG Y51S/N55V/F56Q/N91R/K94Q/R97W-del(V105-I107) pore containing the C terminal strep tag (Escherichia coli, UniProt P0AEA2 16-277); experiment: panel F; complex made by incubating pore and peptide; DNA translocation current recording
T3 construct: not shown: C-terminal Strep tag
T3 chain: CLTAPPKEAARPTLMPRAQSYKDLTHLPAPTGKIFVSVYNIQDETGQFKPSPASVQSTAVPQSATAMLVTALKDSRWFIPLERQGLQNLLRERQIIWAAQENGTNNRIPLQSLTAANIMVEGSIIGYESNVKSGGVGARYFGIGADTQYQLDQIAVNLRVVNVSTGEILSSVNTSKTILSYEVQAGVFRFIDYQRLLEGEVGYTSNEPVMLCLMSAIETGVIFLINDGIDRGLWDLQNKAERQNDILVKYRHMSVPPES

[4] = molecular target: T4, CsgG Y51A/N55I/F56Q/N91R/K94Q/R97W-del(V105-I107) pore containing the C terminal strep tag (Escherichia coli, UniProt P0AEA2 16-277); experiment: panel C; complex made by incubating pore and peptide; DNA translocation current recording
T4 construct: N551 read as N55I; also called Y51A/N551/F56Q/N91R/K94Q/R97W-del(V105-I107) (so in the source); not shown: C-terminal Strep tag
T4 chain: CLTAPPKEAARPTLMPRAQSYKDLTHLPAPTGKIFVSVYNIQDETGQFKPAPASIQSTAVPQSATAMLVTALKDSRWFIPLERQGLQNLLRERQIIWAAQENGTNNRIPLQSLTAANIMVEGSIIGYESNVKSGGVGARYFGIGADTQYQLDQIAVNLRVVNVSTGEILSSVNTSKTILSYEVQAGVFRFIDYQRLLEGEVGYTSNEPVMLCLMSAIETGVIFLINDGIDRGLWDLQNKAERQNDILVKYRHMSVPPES

[5] = molecular target: T5, CsgG Y51A/F56I/N91R/K94Q/R97W-del(V105-I107) pore containing the C terminal strep tag (Escherichia coli, UniProt P0AEA2 16-277); experiment: panel E; complex made by incubating pore and peptide; DNA translocation current recording
T5 construct: F561 read as F56I; also called Y51A/F561/N91R/K94Q/R97W-del(V105-I107) (so in the source); not shown: C-terminal Strep tag
T5 chain: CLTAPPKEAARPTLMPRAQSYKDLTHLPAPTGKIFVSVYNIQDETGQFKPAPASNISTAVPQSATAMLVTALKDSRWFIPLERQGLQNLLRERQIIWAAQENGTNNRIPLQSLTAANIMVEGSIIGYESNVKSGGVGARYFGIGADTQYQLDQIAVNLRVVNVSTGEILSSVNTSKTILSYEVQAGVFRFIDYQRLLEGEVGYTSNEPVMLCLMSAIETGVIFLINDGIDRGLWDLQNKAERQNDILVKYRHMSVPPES

[6] = molecular target: T6, CsgG Y51A/N55V/F56Q/N91R/K94Q/R97W-del(V105-I107) pore containing the C terminal strep tag (Escherichia coli, UniProt P0AEA2 16-277); experiment: complex made by incubating pore and peptide; DNA translocation current recording
T6 construct: also called Y51A/F56Q/N55V/N91R/K94Q/R97W-del(V105-I107); not shown: C-terminal Strep tag
T6 chain: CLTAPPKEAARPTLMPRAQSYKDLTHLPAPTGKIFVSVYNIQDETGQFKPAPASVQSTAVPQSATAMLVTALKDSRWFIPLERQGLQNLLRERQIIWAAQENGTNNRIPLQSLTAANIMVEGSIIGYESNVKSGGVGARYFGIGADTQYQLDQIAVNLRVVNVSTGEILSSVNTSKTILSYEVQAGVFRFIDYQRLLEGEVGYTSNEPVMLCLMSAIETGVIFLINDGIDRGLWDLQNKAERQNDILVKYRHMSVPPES

[7] = molecular target: T7, E. coli CsgG (wild type) fused C-terminally to a Strep-II tag (Escherichia coli, UniProt P0AEA2 16-277, N-terminal Cys of mature CsgG lipidated (N-terminal lipidation of CsgG)); experiment: co-expression in E. coli; His then Strep tandem affinity purification; SDS-PAGE
T7 construct: Nonameric pore; dimers of nonamers (18-mer) also seen; also called CsgG-Strep; CsgG pore; not shown: C-terminal Strep-II tag
T7 sequence: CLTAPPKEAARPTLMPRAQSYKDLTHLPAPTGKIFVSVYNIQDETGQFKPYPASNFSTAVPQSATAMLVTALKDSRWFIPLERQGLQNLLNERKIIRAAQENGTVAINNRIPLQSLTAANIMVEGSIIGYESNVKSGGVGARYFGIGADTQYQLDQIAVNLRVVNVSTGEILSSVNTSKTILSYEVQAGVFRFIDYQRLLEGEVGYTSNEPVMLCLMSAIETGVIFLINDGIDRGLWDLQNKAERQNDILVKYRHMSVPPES

[8] = molecular target: T7, E. coli CsgG (wild type) fused …; experiment: co-expression, Strep affinity purification, anti-His dot blot
[9] = molecular target: T6, CsgG …; experiment: reconstitution of purified pore with synthetic peptide; SDS-PAGE after heating
[10] = molecular target: T8, CsgG Y51A/F56Q/N91R/K94Q/R97W-del(V105-I107) pore containing the C terminal strep tag (Escherichia coli, UniProt P0AEA2 16-277); experiment: co-expression, purification, TEV cleavage; DNA translocation current recording
T8 construct: not shown: C-terminal Strep tag
T8 chain: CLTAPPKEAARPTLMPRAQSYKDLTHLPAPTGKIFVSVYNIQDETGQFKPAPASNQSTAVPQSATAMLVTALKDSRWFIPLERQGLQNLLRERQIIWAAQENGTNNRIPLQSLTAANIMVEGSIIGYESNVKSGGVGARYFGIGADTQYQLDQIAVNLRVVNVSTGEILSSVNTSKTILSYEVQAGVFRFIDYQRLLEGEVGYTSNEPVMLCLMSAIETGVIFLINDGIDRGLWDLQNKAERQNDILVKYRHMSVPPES

[11] = molecular target: T7, E. coli CsgG (wild type) fused …; experiment: in vitro reconstitution 2:1 peptide:CsgG, StrepTactin pull down, native PAGE fluorescence
[12] = molecular target: T9, CsgG Y51A/F56Q/K94Q/R97W/R192D-del(V105-I107), Strep-tagged (Escherichia coli, UniProt P0AEA2 16-277); experiment: as above
T9 construct: also called CsgG mutant with altered constriction; not shown: C-terminal Strep tag
T9 chain: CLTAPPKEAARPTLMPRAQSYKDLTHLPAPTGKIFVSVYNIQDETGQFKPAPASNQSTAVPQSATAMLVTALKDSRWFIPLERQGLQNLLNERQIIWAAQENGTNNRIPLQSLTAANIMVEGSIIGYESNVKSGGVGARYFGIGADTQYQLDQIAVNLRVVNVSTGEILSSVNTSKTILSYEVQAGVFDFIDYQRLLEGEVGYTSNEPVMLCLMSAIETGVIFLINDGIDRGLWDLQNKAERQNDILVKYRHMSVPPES

[13] = molecular target: T6, CsgG …; experiment: reconstitution of purified pore with synthetic peptide; electrophysiology

B1: CsgF-N17S-(1-35) peptide (peptide)
peptide: GTMTFQFRNPNFGGNPSNGAFLLNSAQAQNSYKDP
notes: also called CsgF-N175-(1-35)
B1: binds [1]; binds [2]; binds [3]. B1: binds [4]; binds [5]; binds [6].

B2: CsgF-N17V-(1-35) peptide (peptide)
peptide: GTMTFQFRNPNFGGNPVNGAFLLNSAQAQNSYKDP
B2: binds [6].

B3: E. coli CsgF (mature) with a C-terminal 6x histidine tag (other)
chain: GTMTFQFRNPNFGGNPNNGAFLLNSAQAQNSYKDPSYNDDFGIETPSALDNFTQAIQSQILGGLLSNINTGKPGRMVTNDYIVDIANRDGQLQLNVTDRKTGQTSTIQVSGLQNNSTDFHHHHHH
notes: a start Met is not mentioned; 9:9 stoichiometry with CsgG in the cryoEM structure; also called CsgF-His
B3: binds [7].

B4: CsgF 20:64 fragment with C-terminal 6xHis (from pNA100) (peptide)
peptide: GTMTFQFRNPNFGGNPNNGAFLLNSAQAQNSYKDPSYNDDFGIETHHHHHH
notes: also called CsgF 1-64; CsgF fragment 1-64
B4: binds [8].

B5: CsgF-(1-45) synthetic peptide (peptide)
peptide: GTMTFQFRNPNFGGNPNNGAFLLNSAQAQNSYKDPSYNDDFGIET
B5: binds [9].

B6: CsgF truncated at position 35 by TEV cleavage, with ENLYFQ left at the C-terminus (peptide)
peptide: GTMTFQFRNPNFGGNPNNGAFLLNSAQAQNSYKDPENLYFQ
notes: The text calls it 42 amino acids long; 35 + 6 gives 41; also called CsgF truncated protein
B6: binds [10].

B7: CsgF N17S truncated at position 35 by TEV cleavage, with ENLYFQ left at the C-terminus (peptide)
peptide: GTMTFQFRNPNFGGNPSNGAFLLNSAQAQNSYKDPENLYFQ
B7: binds [10].

B8: Alexa 594-labelled CsgF peptide corresponding to the first 34 residues of mature CsgF (peptide)
peptide: GTMTFQFRNPNFGGNPNNGAFLLNSAQAQNSYKD-{NH(CH2)5NH2-Alexa594}
notes: Synthetic peptide; also called CsgF N-terminal peptide; FCP
B8: binds [11]; binds [12].

B9: CsgF-(1-29) synthetic peptide (peptide)
peptide: GTMTFQFRNPNFGGNPNNGAFLLNSAQAQ
B9: binds [13].

B10: CsgF-(1-30) synthetic peptide (peptide)
peptide: GTMTFQFRNPNFGGNPNNGAFLLNSAQAQN
B10: binds [13].
